Test system: azocasein
Test: Stability of Et-trypsin and trypsin in a disinfecting composition (Example 2B), azocasein method
Assay type: physicochemical
Details: 37° C., Example 2B composition, 50 μg/ml
Experimental: Azocasein Method The following solutions are used in this assay: 1) Buffer solution: 0.05 M sodium phosphate buffer containing 0.9% sodium chloride, pH 7.6. 2) Substrate solution: 2 mg/ml azocasein in the buffer solution mentioned above. The assay is initiated by mixing 1 ml of an appropriately diluted (such that the enzyme activity is in the range of standard curve) enzyme composition in phosphate buffer with 2 ml of azocasein substrate solution (2 mg/ml). After incubation at 37° C. for 20 minutes, the mixture is removed from the incubator and 1 ml of trichloroacetic acid to (14% w/v) is added to stop the enzyme reaction. The mixture is vortexed well and allowed to stand at room temperature for 20 minutes. After centrifuging at 2500 rpm (with a Beckman GS-6R Centrifuge) for 15 minutes, the supernatant is filtered with a serum sampler. 2 ml of the clear yellow filtrate is then adjusted to a neutral pH with 2 ml of 0.5 N sodium hydroxide and the absorbance of 440 nm wavelength light is measured with a spectrophotometer. The amount of azocasein hydrolyzed is calculated based on a standard curve of known concentrations of azocasein solution developed under identical conditions. An enzyme activity unit (“AZ U”) is defined as that amount of enzyme which hydrolyzes 1 μg of azocasein substrate/minute at 37° C. The following is an example of the stability of Et-trypsin or Me-trypsin in a disinfecting composition of the present invention as compared to an analogous composition containing trypsin. The enzymes were solubilized in the Example 2B composition. The compositions were stored at 37° or 50° C. for 8 days or 30 hours, respectively. At various time points, enzyme activity was assayed using the azocasein method.

ethyl trypsin [Et-Trypsin]
% Activity Remaining (1 Hour): 100%
% Activity Remaining (2 Hours): 100%
% Activity Remaining (4 Hours): 95.2%
% Activity Remaining (6 Hours): 99.3%
% Activity Remaining (8 Hours): 97.9%
% Activity Remaining (1 day): 89.7%
% Activity Remaining (2 days): 82.5%
% Activity Remaining (4 days): 76.4%
% Activity Remaining (8 days): 65.6%
